Legend:
FGFR3 = FGFR3 (UniProt P22607); test: phosphorylation enrichment, bacterial display (enrichment ratio); higher = better substrate or ligand; peptides without Tyr show the background
AncSZ = test: as above
Fyn = Fyn (UniProt P06241); test: as above
EPHB1 = EPHB1 (UniProt P54762); test: as above
Fer (mouse) = test: as above
EPHB2 = EPHB2 (UniProt P29323); test: as above
Hck = Hck (UniProt P08631); test: as above
c-Src = test: as above
Jak2 = Jak2 (UniProt O60674); test: as above
FGFR1 = FGFR1 (UniProt P11362); test: as above
MERTK = MERTK (UniProt Q12866); test: as above
Fes = Fes (UniProt P07332); test: as above
c-Abl (mouse) = test: as above
SHP2-C SH2 = test: SH2 binding enrichment of the phosphorylated peptide, bacterial display (enrichment ratio); higher = better substrate or ligand; peptides without Tyr show the background
Grb2 SH2 = Grb2 SH2 (UniProt P62993); test: as above
c-Src SH2 = test: as above
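For SH2 binding enrichment of the phosphorylated peptide, bacterial display in this document: peptide library displayed on the E. coli surface as eCPX fusions, selected cells deep-sequenced, score is each peptide's frequency after selection divided by its frequency in the input.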
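For phosphorylation enrichment, bacterial display in this document: 11-residue human phosphosite peptides and single-mutation variants displayed on the E. coli surface, counted by deep sequencing, each peptide's frequency after selection divided by its frequency in the unselected input library; frequency after pTyr selection over input frequency; kinase dosed for 20-30% of maximal phosphorylation in three min.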

Sequence of Hck (P08631 whole entry, looked up): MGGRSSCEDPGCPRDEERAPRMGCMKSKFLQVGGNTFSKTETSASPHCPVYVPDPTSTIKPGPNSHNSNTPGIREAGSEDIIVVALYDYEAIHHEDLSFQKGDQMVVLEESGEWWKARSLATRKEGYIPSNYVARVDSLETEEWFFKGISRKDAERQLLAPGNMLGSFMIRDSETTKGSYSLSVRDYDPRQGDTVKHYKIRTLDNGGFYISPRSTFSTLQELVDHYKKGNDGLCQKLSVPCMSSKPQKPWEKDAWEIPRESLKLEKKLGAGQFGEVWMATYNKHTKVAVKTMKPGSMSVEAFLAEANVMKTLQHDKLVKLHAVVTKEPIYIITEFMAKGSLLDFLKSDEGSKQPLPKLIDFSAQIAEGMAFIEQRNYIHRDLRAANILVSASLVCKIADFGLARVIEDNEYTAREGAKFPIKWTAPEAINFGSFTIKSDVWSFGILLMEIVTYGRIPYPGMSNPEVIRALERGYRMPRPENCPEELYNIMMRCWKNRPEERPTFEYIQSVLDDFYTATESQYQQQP
Sequence of Fyn (P06241 whole entry, looked up): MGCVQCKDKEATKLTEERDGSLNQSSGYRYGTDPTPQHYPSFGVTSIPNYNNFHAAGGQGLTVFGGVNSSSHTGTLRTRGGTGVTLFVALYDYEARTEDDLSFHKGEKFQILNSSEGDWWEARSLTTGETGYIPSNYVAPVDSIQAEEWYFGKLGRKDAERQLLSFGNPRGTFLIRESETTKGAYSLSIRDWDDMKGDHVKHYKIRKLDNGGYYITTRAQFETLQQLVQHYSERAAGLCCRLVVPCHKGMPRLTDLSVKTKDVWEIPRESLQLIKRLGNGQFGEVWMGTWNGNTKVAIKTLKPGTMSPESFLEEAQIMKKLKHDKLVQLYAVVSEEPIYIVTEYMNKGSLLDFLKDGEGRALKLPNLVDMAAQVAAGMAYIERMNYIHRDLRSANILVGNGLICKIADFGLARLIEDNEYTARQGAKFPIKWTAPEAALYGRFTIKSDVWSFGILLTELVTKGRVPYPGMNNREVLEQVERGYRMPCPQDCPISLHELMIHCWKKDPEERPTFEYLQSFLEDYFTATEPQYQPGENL
Sequence of FGFR1 (P11362 whole entry, looked up): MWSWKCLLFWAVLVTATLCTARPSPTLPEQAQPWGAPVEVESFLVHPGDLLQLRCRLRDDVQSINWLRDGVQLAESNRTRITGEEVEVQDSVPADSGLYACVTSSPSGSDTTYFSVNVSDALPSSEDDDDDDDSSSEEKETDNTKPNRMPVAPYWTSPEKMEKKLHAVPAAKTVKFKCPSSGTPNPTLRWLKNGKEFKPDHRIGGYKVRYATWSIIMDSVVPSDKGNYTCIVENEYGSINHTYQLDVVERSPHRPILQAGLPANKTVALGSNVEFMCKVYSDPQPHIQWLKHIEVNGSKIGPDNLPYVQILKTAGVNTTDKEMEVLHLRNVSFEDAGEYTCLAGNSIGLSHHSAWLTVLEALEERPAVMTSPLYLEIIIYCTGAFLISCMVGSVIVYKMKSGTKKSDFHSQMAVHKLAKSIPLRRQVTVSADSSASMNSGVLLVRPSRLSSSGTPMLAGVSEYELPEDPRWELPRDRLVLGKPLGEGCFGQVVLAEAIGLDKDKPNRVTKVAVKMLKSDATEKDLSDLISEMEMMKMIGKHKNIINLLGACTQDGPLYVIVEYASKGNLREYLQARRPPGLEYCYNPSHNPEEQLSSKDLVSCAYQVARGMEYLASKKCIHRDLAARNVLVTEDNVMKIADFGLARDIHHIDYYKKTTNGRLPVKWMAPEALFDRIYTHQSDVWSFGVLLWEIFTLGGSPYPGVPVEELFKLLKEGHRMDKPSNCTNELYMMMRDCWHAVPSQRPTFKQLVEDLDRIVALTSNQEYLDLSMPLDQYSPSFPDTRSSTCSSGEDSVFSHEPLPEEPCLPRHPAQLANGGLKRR
Sequence of Jak2 (O60674 whole entry, looked up): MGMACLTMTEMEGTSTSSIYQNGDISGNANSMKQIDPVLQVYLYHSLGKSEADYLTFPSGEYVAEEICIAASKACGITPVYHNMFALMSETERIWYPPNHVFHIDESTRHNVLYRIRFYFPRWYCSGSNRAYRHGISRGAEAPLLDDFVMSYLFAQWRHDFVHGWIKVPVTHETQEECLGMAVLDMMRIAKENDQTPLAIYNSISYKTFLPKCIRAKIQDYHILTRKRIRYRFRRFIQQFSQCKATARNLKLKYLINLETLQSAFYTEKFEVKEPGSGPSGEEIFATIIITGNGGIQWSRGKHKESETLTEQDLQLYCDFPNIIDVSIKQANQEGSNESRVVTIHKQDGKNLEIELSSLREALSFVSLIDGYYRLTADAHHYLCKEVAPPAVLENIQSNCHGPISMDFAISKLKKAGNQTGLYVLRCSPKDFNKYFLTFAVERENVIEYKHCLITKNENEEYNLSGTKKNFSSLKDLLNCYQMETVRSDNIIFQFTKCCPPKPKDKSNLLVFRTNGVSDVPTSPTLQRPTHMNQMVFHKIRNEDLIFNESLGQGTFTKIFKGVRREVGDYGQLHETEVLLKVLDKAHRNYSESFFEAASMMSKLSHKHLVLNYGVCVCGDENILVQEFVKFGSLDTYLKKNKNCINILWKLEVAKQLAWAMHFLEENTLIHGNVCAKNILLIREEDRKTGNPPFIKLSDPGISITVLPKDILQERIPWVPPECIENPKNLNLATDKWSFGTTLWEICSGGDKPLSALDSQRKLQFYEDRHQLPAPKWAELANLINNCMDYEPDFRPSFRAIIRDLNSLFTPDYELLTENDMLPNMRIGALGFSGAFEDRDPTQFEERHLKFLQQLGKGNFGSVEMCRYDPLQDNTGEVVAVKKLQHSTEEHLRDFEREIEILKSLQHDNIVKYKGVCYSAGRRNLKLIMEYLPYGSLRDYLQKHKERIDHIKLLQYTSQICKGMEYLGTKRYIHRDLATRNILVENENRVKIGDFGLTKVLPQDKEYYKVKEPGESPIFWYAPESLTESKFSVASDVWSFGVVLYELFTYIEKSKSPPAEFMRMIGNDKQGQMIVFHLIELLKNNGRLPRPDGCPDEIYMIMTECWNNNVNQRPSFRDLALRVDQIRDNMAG
Sequence of FGFR3 (P22607 whole entry, looked up): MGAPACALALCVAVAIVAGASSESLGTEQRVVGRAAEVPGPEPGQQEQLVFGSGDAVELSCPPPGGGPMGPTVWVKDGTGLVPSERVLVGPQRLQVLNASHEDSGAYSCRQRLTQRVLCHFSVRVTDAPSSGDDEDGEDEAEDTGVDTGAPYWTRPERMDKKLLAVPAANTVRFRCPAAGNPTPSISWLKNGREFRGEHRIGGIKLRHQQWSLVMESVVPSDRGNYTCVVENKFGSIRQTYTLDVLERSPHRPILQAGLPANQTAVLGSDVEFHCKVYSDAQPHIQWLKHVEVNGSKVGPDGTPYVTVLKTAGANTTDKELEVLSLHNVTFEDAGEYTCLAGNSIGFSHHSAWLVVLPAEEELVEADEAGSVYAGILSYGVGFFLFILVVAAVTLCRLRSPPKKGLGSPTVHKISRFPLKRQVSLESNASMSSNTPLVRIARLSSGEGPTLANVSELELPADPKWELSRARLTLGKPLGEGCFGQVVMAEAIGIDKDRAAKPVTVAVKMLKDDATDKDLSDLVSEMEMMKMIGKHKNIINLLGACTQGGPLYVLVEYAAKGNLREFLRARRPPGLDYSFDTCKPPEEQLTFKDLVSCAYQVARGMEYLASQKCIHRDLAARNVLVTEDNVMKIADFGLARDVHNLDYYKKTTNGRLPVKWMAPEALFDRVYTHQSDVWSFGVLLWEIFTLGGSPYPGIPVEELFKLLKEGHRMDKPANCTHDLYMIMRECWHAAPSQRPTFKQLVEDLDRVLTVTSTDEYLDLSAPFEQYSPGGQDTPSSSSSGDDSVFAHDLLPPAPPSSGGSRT
Sequence of Grb2 SH2 (P62993 whole entry, looked up): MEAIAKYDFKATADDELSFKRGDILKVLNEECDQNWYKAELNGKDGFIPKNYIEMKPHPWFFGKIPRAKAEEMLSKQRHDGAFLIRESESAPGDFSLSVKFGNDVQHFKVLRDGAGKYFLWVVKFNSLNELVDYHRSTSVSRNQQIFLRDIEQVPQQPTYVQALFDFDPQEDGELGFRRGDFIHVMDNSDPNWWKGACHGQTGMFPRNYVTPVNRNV
Sequence of Fes (P07332 whole entry, looked up): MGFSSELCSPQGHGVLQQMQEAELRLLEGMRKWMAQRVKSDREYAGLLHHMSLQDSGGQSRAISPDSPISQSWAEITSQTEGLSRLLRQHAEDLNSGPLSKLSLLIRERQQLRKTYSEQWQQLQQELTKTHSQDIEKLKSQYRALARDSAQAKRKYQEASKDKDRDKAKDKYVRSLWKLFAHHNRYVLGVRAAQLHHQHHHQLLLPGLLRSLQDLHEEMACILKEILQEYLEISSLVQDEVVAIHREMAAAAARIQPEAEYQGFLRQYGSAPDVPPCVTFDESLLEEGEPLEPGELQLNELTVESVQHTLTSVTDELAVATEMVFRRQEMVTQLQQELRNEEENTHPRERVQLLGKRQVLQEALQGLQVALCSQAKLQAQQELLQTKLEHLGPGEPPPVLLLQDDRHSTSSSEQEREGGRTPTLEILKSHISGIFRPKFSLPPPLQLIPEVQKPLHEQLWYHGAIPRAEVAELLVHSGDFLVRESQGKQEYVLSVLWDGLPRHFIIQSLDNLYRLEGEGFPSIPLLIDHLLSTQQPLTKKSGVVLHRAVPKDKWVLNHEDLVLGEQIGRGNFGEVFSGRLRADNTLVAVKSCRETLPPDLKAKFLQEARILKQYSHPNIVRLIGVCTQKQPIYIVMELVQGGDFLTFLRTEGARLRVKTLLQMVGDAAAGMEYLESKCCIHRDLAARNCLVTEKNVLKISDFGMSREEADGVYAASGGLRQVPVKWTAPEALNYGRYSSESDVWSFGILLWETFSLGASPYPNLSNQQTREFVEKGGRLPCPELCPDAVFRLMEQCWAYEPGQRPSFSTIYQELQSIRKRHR

Sequence | phosphorylation enrichment (FGFR3) | phosphorylation enrichment (AncSZ) | phosphorylation enrichment (Fyn) | phosphorylation enrichment (EPHB1) | phosphorylation enrichment (Fer (mouse)) | phosphorylation enrichment (EPHB2) | phosphorylation enrichment (Hck) | phosphorylation enrichment (c-Src) | phosphorylation enrichment (Jak2) | phosphorylation enrichment (FGFR1) | phosphorylation enrichment (MERTK) | phosphorylation enrichment (Fes) | phosphorylation enrichment (c-Abl (mouse)) | SH2 binding enrichment (SHP2-C SH2) | SH2 binding enrichment (Grb2 SH2) | SH2 binding enrichment (c-Src SH2)
PEYVVYKPQME [CCRL2_Y170_F167Y] | 6.08 | 6.34 | 9.13 | 2.97 | 1.09 | 7.28 | 6.69 | 9.4 | 5.75 | 8.3 | 1.14 | 1.29 | 9.5 | 1.05 | 0.913 | 0.439
PGPQSYPIVTG [PAX5_Y299] | 0.685 | 0.611 | 0.68 | 0.484 | 0.744 | 0.538 | 0.565 | 0.4 | 0.533 | 0.504 | 0.586 | 0.736 | 0.5 | 0.861 | 1 | 0.646
PGVDRYSLGTS [C5orf42_Y1451] | 0.745 | 0.789 | 0.702 | 0.577 | 0.57 | 0.788 | 0.678 | 0.737 | 0.769 | 0.755 | 0.788 | 0.973 | 0.741 | 0.762 | 0.576 | 0.262
PINLFYLMDLS [ITGB2_Y131_D128N_YF] | 1.11 | 1.46 | 0.653 | 0.752 | 0.695 | 0.886 | 0.718 | 1.11 | 1.92 | 0.772 | 0.763 | 1.98 | 2.11 | 0.781 | 0.772 | 0.489
PKSWNYELPAT [PROM1_Y34_A31S] | 1.65 | 2.37 | 1.13 | 1.67 | 1.06 | 1.67 | 1.26 | 0.448 | 0.658 | 1.39 | 1.07 | 1.45 | 0.605 | 1.02 | 0.618 | 0.772
PLDGEYFTPQI [TP53_Y327_L330P] | 2.19 | 6.68 | 0.89 | 1.53 | 0.482 | 1.91 | 0.733 | 0.434 | 0.978 | 3.09 | 0.474 | 1.34 | 12.9 | 0.725 | 0.816 | 0.45
PLDGGYFTLQI [TP53_Y327_E326G] | 1.59 | 1.79 | 0.726 | 1.2 | 0.766 | 0.776 | 0.679 | 1.37 | 5.04 | 1.67 | 0.5 | 1.75 | 1.09 | 0.663 | 0.71 | 0.518
PLKALYLQQRP [ATM_Y2969] | 0.743 | 0.954 | 0.822 | 0.766 | 0.764 | 0.687 | 0.642 | 0.576 | 1.17 | 0.774 | 0.695 | 1.49 | 0.934 | 1.07 | 1.3 | 0.914
PLKFLYPNIDR [STAT1_Y668_K673R_YF] | 0.953 | 1.31 | 0.796 | 0.941 | 0.602 | 0.664 | 0.6 | 0.55 | 1.06 | 0.443 | 0.519 | 1.24 | 0.891 | 0.8 | 0.969 | 0.818
PLQDVYKIGGI [EEF1A2_Y254] | 0.793 | 1.01 | 2.3 | 2.02 | 0.679 | 0.572 | 1.04 | 4.34 | 1 | 0.505 | 0.522 | 0.981 | 1.92 | 0.574 | 1.03 | 0.429
PLRPDYQEPSR [DDR2_Y481] | 0.768 | 1.21 | 0.509 | 0.581 | 0.397 | 0.636 | 0.57 | 0.533 | 1.02 | 0.532 | 0.516 | 1.66 | 0.861 | 0.663 | 1.02 | 0.786
PNAYIYVVQLP [L1CAM_Y420_A415P] | 1.61 | 1.53 | 0.941 | 1.08 | 0.47 | 1.35 | 0.832 | 1.31 | 1.75 | 1.6 | 2.25 | 1.76 | 1.18 | 1.14 | 1.36 | 0.862
PNRILYGDFRQ [MYH6_Y717] | 0.688 | 0.823 | 6.85 | 0.538 | 0.5 | 0.731 | 4.43 | 5.52 | 0.862 | 0.501 | 0.622 | 1.02 | 0.658 | 0.878 | 0.918 | 0.568
PPAPRCHHSAV [LZTR1_Y119_Y119C] | 1.21 | 1.61 | 0.921 | 1.17 | 2.15 | 0.701 | 1.28 | 0.718 | 1.75 | 0.839 | 0.566 | 2.01 | 0.842 | 1.51 | 1.31 | 0.89
PPLMLYNPTTF [EGFR_Y270_YF] | 0.857 | 1.34 | 0.692 | 0.973 | 1.25 | 0.891 | 1.13 | 0.863 | 1.03 | 0.731 | 1 | 1.21 | 0.79 | 0.785 | 0.931 | 0.278
PPSGEYFGHCG [TRIP6_Y275_Q278H] | 1.18 | 1.69 | 0.698 | 0.85 | 0.668 | 1.02 | 0.983 | 0.509 | 0.999 | 0.698 | 0.529 | 1.38 | 0.904 | 0.713 | 1.06 | 0.599

— the supplement of paper PMC10065799, “High-throughput profiling of sequence recognition by tyrosine kinases and SH2 domains using bacterial peptide display” (eLife, 2023)
